Assay results: the DeepSol protein solubility set

assay: soluble on expression in E. coli; label from the status in PepcDB or PDB records

Row | Sequence | soluble on expression in E. coli
1 | MSVRLPLLLRQLGRQQLPSGPACRLRELCRSGSRSSSSGGGDPEGLRGRRLQDGQTFSSHGPGNPEAPGMDSIVRDVIHNSKEVLSLLQEKNPAFKPVLVVIQAGDDNLMKDMNQNLAKEAGLDITHICLPPDSGEDEIIDEILKINEDPRVHGLTLQISEDSLSNKVLNALKPEKDVDGVTDINLGKLVRGDAPECFVSPLAKAAVELVEKSGITLDGKKVLVVGAHGPLEAALQWLFQRKGFMTMSCPWAPPQLPDKLREADIVVLGSPKPEEIPAVWIPSGTTILNCFHDFLSGKLSGGSPGVPVDKLIAEESVSLLAAALRIQNMVSSGRRWLREQQHRRWRLHCLKLQPLSPVPSDIEISRGQTPKAVDVLAKEIGLLADEIEIYGKSKAKVQLSLLERLKDQTDGKYVLVAGITPTPLGEGKSTVTIGLVQALTAHLKVNSFACLRQPSQGPTFGVKGGAAGGGYAQVIPMEEFNLHLTGDIHAITAANNLLAAAIDTRILHESTQTDKALYNRLVPLVNGVREFSEIQLSRLKKLGIHKTDPSTLTEEEVRKFARLNIDPATITWQRVLDTNDRFLRKITIGQGSTEKGYSRQAQFDIAVASEIMAVLALTDSLTDMKERLGRMVVASDKDGQPVTAEDLGVTSALTVLMKDAIKPNLMQTLEGTPVFVHPGPFANIAHANSSVLTDKIALKFVGEEGFVVTEAGFGADIGMEKFFNIKCRASGLVPNVVVLVATVRALKMHVGGPSVTAGVPLKKEYTEENIQMVADGCCNLQKQIQIAQLFGVPVVVALNVFKTDTRAEIDLVCELAKRAGAFDAVPCYHWSAGGKGSVDLARAVREAANKRSRFQFLYDVQLPIVEKIRVIAQTVYGAKDIELSPEAQSKIDRYTQQGFGNLPICMAKTHLSLSHEPDKKGVPRDFTLPISDVRASIGAGFIYPLVGTMSTMPGLPTRPCFYDIDLDTETEQVKGLF | soluble
2 | MSVVISGALTDGAGIPMSGYHIILKSRVNTPEVVMNTVADVMTGNDGEYCFHARTGKYGVYLKQDWRNEYNVGDIAVYEDSKPGTLNDFLIAPDEGDLKPDVVKRFEEMVAQAQQSAGAAAGNAQQTAQDVAAAAGYARAAEQAKNDIDAALTGTLKTANHLSETAAAGEKAQQKSRDNLGLKSAATMEAQSDIYDRTKGRLAIPGAFGFGCAFLPEDVIRFDTKSDFLAWVRNALPGEYSVAGPYGIIIPDTRFEGVLSIRWTDARPETTEPRYRAKSLTFYGINGPIYHTRYRYWPISRLTDWVKINITTEDIIYRIVASSVRNRWGDPDIGGLIIAAYQGEADGDKVIRLVRGQSYRGSRLGPVGISVPSTPTGTYIASPQFFITGCSEHSLPGSYCALSGVPDAHVSGAMPGLFIRTS | not soluble
3 | MSWIYDAHIHLSDPEYKSDIDMILNYMDLLKIKACCVSMDIETSNETMALYEKSKNVLPFIGIHPEMAQKSSEPVYELIEKNNEIISGIGEIGLDRTYINSEDEWEIQKDVFSKQLSLAEKFNKPVSIHSRKTLSDIFEILPSYKIPGILLHWFDGNKSQLKTAMENEYFVSYGPLLVYANDKQVLLSKTDPSRLLVETDGPVRFSHCFEYKTTEIMFVPSVLFCASKILHTSYENLLTQIEDNSKKFLGI | soluble
4 | MSYDICIIGSGAGASPIAHQLSKAGAKVLVLEKGPWLTEKEFFKDELTISIHDAYNPKLTDEQHVIEEEYFDENDKPFWQGEKTSDSGWSWWNGNVVGGSSNFMSGYFHRLKPIDFRLKSEFGAISGANVEDWPISYDELEPYYAKVEREVGVSGRVVEHPHQEPRSTDFPYPPIAELPMSSWIDKAAQKIGYHAIPVPRAILSKPAMGRRSCEYSGYCSSYGCASGAKGSGRAALLNNAVASGNCTIQANAKVYKIATDKQGEITGVHYYDKIGRKKSVTAKIYVVACQAVETSRLLLASTGEKFPQGLANNNGQVGKNLLFSGGGTGQGDFNYADLSDKQVGELKQVGPFINRALQDWYQIADKSFTGANAKGQAKGGTIDFLFHQNPIARARGTQWGSDQNGDDKLLWGEDLKQSLKTEFTSYKTLRFEVFNDWLPTDDCFVSLDNEVTDQWGDPVAKVRIGYHDHDLEVGEYLSKKAEKLLEALGAKNVSSSVSGYPSTNLMAGGCRFGNDPKTSVLNKTCQAHEVDNLYVTDGSFMPTGGSVPYTFTIYANAFRVADKIKAHWLTLKSLEHHHHHH | not soluble
5 | MSYEKEFLKDFEDWVKTQIQVNQLAMATSQEVAQEDGDERAKDAFIRYESKLDAYEFLLGKFDNYKNGKAFHDIPDELFGARHY | soluble
6 | MTAAEHGLHAPAYAWSHNGPFETFDHASIRRGYQVYREVCAACHSLDRVAWRTLVGVSHTNEEVRNMAEEFEYDDEPDEQGNPKKRPGKLSDYIPGPYPNEQAARAANQGALPPDLSLIVKARHGGCDYIFSLLTGYPDEPPAGVALPPGSNYNPYFPGGSIAMARVLFDDMVEYEDGTPATTSQMAKDVTTFLNWCAEPEHDERKRLGLKTVIILSSLYLLSIWVKKFKWAGIKTRKFVFNPPKPRK | soluble
7 | MTAEVTAADAEVLLAQPRGFCAGVDRAIDIVERALELHGAPIYVRHEIVHNRYVVEDLRGKGAVFIDELDQAPAGAIVVFSAHGVSQAVRGEAEARGLRVFDATCPLVTKVHIEVARMRAAGREIVMIGHKGHPEVEGTLGQAQGGMYLVETVEDVAALQVSDPGNLAYVTQTTLSVDDAAAVAGALKARFPGIVEPKKSDICYATQNRQDAVKLLAPECDLVLVVGSTNSSNSNRLREVAERKGVAAYLIDGAHAIDPAWLQGRRSIGITAGASAPEVLVQQVVERVRELGAVSVRTMPGLEESVAFPLPKGLSRKIAQTESLEAAALEHHHHHH | not soluble
8 | MTAHFRPAVYDLPRDGHTVFRWEHPPQQATVELERLQRKQSLAAAFRVFARLGFDMGGAGHITVRDPGRPDHFWVNPVGVYFGHVRVRDLLLVNPEGAVIEGEGALNLAAFAIHAALHEAHPEVVAAAHAHSLYGKAWSSLGRLLDPLTQDACAFYERHGLFDNFSGVVLEASEGVRIAAALAGRKALILQNHGLLTVGETVEAAVWRFIAMDNAAQTQLLAEAAGTPRPIPHEVARHTARQVGTEFGGWFSFQPYRERIVREEPDFLDLEHHHHHH | not soluble
9 | MTAHLAAINGLRLKAECSNCGVRELCLSVGMSLTDTDRLSAIIPQPIKVKKGAALYHAGDPLQSLYAVRFGFFKTTISSQDGRDQLTGFQMSGELLGCDAISNDCHVCDAIALEDSEVCPIRFTHLERLSREMPSLQHNLNRALSKEIVRDHEMLLLLGNLNAEERMAAFLLNLSGRMFNRGYSATAFVLRMTREDIGSYLGLRLETICRAIANLRNLRIVSISGRQVEILDLNRLQALIHGCSYRAKSL | not soluble
10 | MTAPHDVPDLTGSGEYLVPDVLQPGLTLVLVGTAPSGISARARAYYANPENKFWRTLHAVGLTPRQLVPQEYATLPQYGLGLTDVAKRHSGVDAALPGEAWRPDELRRKVEHYRPRIVAFTSKRGASETLGVPTGKLPYGPQPQPLDWPAETELWVLPSTSPLGHNHFRLEPWQALGDRVRELRGAAEAGNPSPETPVL | soluble
11 | MTARDDETIAFYSGHATAYTSRGQAPDRPHLETFLARLRAGAKILELGCGGGQDSEYMLSAGFDVHPTDGTPDIAKAAQARLGIPVRTLLFENIEDAALYDAVWANACLLHVPRLALPGIIGRIHTALKPGGVFYASFKAGEVEGRDTFGRYYNYPSKAWLEETYGQFAWTEVEIEARQGSGYDKLPTDWLHVTATKA | soluble
12 | MTARVIALDLDGTLLTPHKTLLPSSLEALSRAKEAGFQLIIVTGRHHVAIHPFYQALALETPAICCNGTYLYDYQAKTVLDADPMPVDKALQLIDLLDEHQIHGLMYVDDAMLYEHPTGHVVRTSRWAQTLPPEQRPTFTQVSSLAQAARDVNAVWKFALTDEDIPRLQRFGQHVEQALGLECEWSWHDQVDIARKGNSKGKRLTQWIEAQGGSMKNVIAFGDNYNDISMLEAAGTGVAMGNADEAVKARADVVIGDNTTDSIAKFIYTHLL | not soluble
13 | MTASFPTRVYLLRHAKAAWAAPGERDFDRGLNEAGFAEAEIIADLAADRRYRPDLILSSTAARCRQTTQAWQRAFNEGIDIVYIDEMYNARSETYLSLIAAQTEVQSVMLVGHNPTMEATLEAMIGEDLLHAALPSGFPTSGLAVLDQDDSAASGKNRWRLIDFLAPGK | soluble
14 | MTATITNKKSCSGSVEAGKTRLTTEWKPESQVPQYVKNELSKPHPNYILAFLNVVQQLKIQRRTGYLDLGIKECESISDHMYRLSIITMLIKDSRVNRDKCVRIALVHDIAESLVGDITPVDPIGKEEKHRREWETIKYLCNALIKPYNEIAAKEIMDDWLAYENVTSLEARYVKDIDKYEMLVQCFEYEREYKGTKNFDDFFGAVASIKTDEVKGWTSDLVVQRQKYFADLTQSITK | soluble
15 | MTATPEVQKSIEEVYTKLQGASDCSSLLKKHLTKDVVAKNKSKKTRLGATLLDVIQSGGENLDSGVGIYAPDAESYTLFADLFNPVIEEYHNGFKATDTQPAMDLGEKNVGELADLDPEGKFIVSTRIRCGRSLQGYPFNPCLSETNYKMMETRMKEIFNSITDPELKGTYYPLTGMDEETKKKLIADHFLFKEGDRFLKAANANRYWPNGRGIFHNEKKTFLVWVNEEDHLRIISMQNGGNVGEVLARLIKGLNLVAAKAPFARHPRLGWLTFCPTNLGTTVRASVHIKLPKISAKDDFKKICSDMKLQIRGIHGEHSESKEGIYDISNKQRLGLTEYQAVRQMYDGLKKLIELEKAAA | not soluble
16 | MTATQGKCPVMHGGATTVNISTAEWWPKALNLDILSQHDRKTNPMGPDFNYQEEVQKLDAALKQDLQALMTDSQDWWPADWGHYGGLMIRLTWHAAGTYRIADGRGGAGTGNQRFAPLNSWPDNTNLDKARRLLWPIKQKYGNKLSWADLIAYAGTIAYESMGLKTFGFAFGREDIWHPEKDIYWGPEKEWFPPSTNPNSRYTGDRELENPLAAVTMGLIYVNPEGVDGNPDPLKTAHDVRVTFARMAMNDEETVALTAGGHTVGKCHGNGNAALLGPEPEGADVEDQGLGWINKTQSGIGRNAVTSGLEGAWTPHPTQWDNGYFAVCSLNYDWELKKNPAGAWQWEPINPREEDLPVDVEDPSIRRNLVMTDADMAMKMDPEYRKISERFYQDPAYFADVFARAWFKLTHRDMGPKARYIGPDVPQEDLIWQDPIPAGNRNYDVQAVKDRIAASGLSISELVSTAWDSARTYRNSDKRGGANGARIRLAPQKDWEGNEPDRLPKVLAVLEGISAATGATVADVIVLAGNVGVEQKARAAGVEIVLPFAPGRGDATAEQTDTESFAVLEPIHDAIATGSSRTMRQRLKNCCLIATQLLGLTAPEMTVLIGGLRVLGTNHGGTKHVVFTDREGVLTNDFFVNLTDMNYLWKPAGKNLYEICDRKTNQVKWTATRVDLVFGSNSILRAYSELYAQDDNKEKFVRDFVAAWTKVMNADRFDLD | soluble
17 | MTDFDIDTSAANYADELALLGVTGAMSYAPKGTQMPETIAPLNPPFVDFGWLSDGGITESQNEERNDWTPFQSTNPIRGQVTKQDFQFKTVVWSISGLANAMYYGVPESDMRFDQETGVTTFEQGKELPPDFKFGLVVDIVDGGKARRHCMPNVSVVERGDIVYSKDDLVGYEMTFRASYDPVAGYAVRRMFKEGWKPGHAGTTLADENKDASLGDWSNTLDESEVRKQSKTVTLPKGATGGTFTVSINGKASAAINHDATGTAMKLVLNKVDGGESAKVTGRAGGPYTITGVEGEITADGTNLTGSDTQDISIN | not soluble
18 | MTDKKPVIVYGVSGYTGRLVCEYLREFNIPFIAAGRDKKRIQEVLDRIPGLDTVDHEVVEVEHTVPALTELFSGARVVSNMVGPFIKHGAIVVEAALAAGCHYTDTTGEQDWVLDVQAKFGEKFAEKGLLLSPGVAQMYTTGEIAANIAL | not soluble
